What was measured:
Assay in all cases: cell-based or functional assay
[1] = target: HIV-1 MGRM-AE-005 Env (HIV-1)
[2] = target: HIV-1 MGRM-F1-017 Env (HIV-1)
[3] = target: HIV-1 MGRM-AE-002 Env (HIV-1)
[4] = target: HIV-1 MGRM-F1-018 Env (HIV-1)
[5] = target: HIV-1 MGRM-C-006 Env on pseudovirus (HIV-1)
[6] = target: HIV-1 LAVI_C22 Env on pseudovirus (HIV-1)
HIV-1 JRCSF Env (HIV-1) = HIV-1 JRCSF Env (HIV-1) (UniProt P20871)
[7] = target: HIV-1 CAAN.A2 (Acute) Env on pseudovirus (HIV-1)
[8] = target: HIV-1 92UG001 Env (HIV-1)
[9] = target: HIV-1 MGRM-Chronic-B-023 Env on pseudovirus (HIV-1)
[10] = target: HIV-1 92UG024 Env (HIV-1)
[11] = target: HIV-1 MGRM-D-008 Env (HIV-1)
[12] = target: HIV-1 APV_13 Env on pseudovirus (HIV-1)
[13] = target: aMLV envelope (negative control pseudovirus)
[14] = target: HIV-1 MGRM-C-015 Env on pseudovirus (HIV-1)
[15] = target: HIV-1 MGRM-F1-023 Env (HIV-1)
[16] = target: HIV-1 MGRM-D-028 Env (HIV-1)
HIV-1 APV-13 Env (HIV-1) = target: HIV-1 APV-13 Env (HIV-1)
[17] = target: HIV-1 MGRM-D-019 Env (HIV-1)
[18] = target: HIV-1 MGRM-C-009 Env on pseudovirus (HIV-1)
[19] = target: HIV-1 93IN905 Env (HIV-1)
[20] = target: HIV-1 MGRM-G-001 Env (HIV-1)
[21] = target: HIV-1 MGRM-D-002 Env (HIV-1)
[22] = target: HIV-1 MGRM-D-012 Env (HIV-1)
[23] = target: HIV-1 MGRM-Chronic-B-017 Env on pseudovirus (HIV-1)
[24] = target: HIV-1 MGRM-AE-006 Env (HIV-1)
[25] = target: HIV-1 MGRM-C-010 Env on pseudovirus (HIV-1)
[26] = target: HIV-1 92BR020 Env (HIV-1)
[27] = target: HIV-1 MGRM-C-007 Env on pseudovirus (HIV-1)
[28] = target: HIV-1 94UG114 Env (HIV-1)
[29] = target: HIV-1 APV_6 Env on pseudovirus (HIV-1)
[30] = target: HIV-1 MGRM-AE-003 Env (HIV-1)
[31] = target: HIV-1 MGRM-G-006 Env (HIV-1)
[32] = target: HIV-1 MGRM-G-027 Env (HIV-1)
HIV-1 APV-6 Env (HIV-1) = target: HIV-1 APV-6 Env (HIV-1)
HIV-1 APV-17 Env (HIV-1) = target: HIV-1 APV-17 Env (HIV-1)
[33] = target: HIV-1 MGRM-Chronic-B-011 Env on pseudovirus (HIV-1)
[34] = target: HIV-1 97ZA012 Env on pseudovirus (HIV-1)
[35] = target: HIV-1 MGRM-C-019 Env on pseudovirus (HIV-1)
[36] = target: HIV-1 MGRM-G-028 Env (HIV-1)
[37] = target: HIV-1 MGRM-G-017 Env (HIV-1)
[38] = target: HIV-1 MGRM-G-015 Env (HIV-1)
[39] = target: HIV-1 92UG046 Env (HIV-1)
[40] = target: HIV-1 MGRM-Chronic-B-018 Env on pseudovirus (HIV-1)
[41] = target: HIV-1 MGRM-C-008 Env on pseudovirus (HIV-1)
[42] = target: HIV-1 MGRM-G-013 Env (HIV-1)
[43] = target: HIV-1 MGRM-Chronic-B-004 Env on pseudovirus (HIV-1)
[44] = target: HIV-1 MGRM-A-004 Env (HIV-1)
[45] = target: HIV-1 MGRM-A-001 Env (HIV-1)
[46] = target: HIV-1 93UG077 Env (HIV-1)
[47] = target: HIV-1 92RW009 Env (HIV-1)
[48] = target: HIV-1 MGRM-A-008 Env (HIV-1)

b12 (antibody)
IC50 (µg/ml), pseudovirus neutralization [1]: 0.63 µg/mL | IC50 (pseudovirus neutralization) [2]: > 50 µg/mL | IC50 (µg/ml), pseudovirus neutralization [3]: 17.1 µg/mL | IC50 (pseudovirus neutralization) [4]: > 50 µg/mL | IC50 [5]: > 50 µg/mL | IC50 [6]: 7.64 µg/mL | neutralization IC50 (HIV-1 JRCSF Env (HIV-1)): 0.16 µg/mL | neutralization IC90 (HIV-1 JRCSF Env (HIV-1)): 1.17 µg/mL | IC50 [7]: > 50 µg/mL | IC50 (µg/ml), pseudovirus neutralization [8]: 1.01 µg/mL | IC50 [9]: > 50 µg/mL | IC50 (µg/ml), pseudovirus neutralization [10]: 45.6 µg/mL | neutralization IC50 [10]: 49.1 µg/mL | neutralization IC90 [10]: > 50 µg/mL | IC50 (µg/ml), pseudovirus neutralization [11]: > 50 µg/mL | IC50 [12]: > 50 µg/mL | IC50 (pseudovirus neutralization) [13]: > 50 µg/mL | IC50 [14]: 13.3 µg/mL | IC50 (pseudovirus neutralization) [15]: > 50 µg/mL | IC50 (µg/ml), pseudovirus neutralization [16]: 0.78 µg/mL | neutralization IC50 (HIV-1 APV-13 Env (HIV-1)): > 25 µg/mL | neutralization IC90 (HIV-1 APV-13 Env (HIV-1)): > 50 µg/mL | IC50 (µg/ml), pseudovirus neutralization [17]: > 50 µg/mL | IC50 [18]: > 50 µg/mL | neutralization IC50 [19]: 34.1 µg/mL | neutralization IC90 [19]: > 50 µg/mL | IC50 (µg/ml), pseudovirus neutralization [20]: > 50 µg/mL | IC50 (µg/ml), pseudovirus neutralization [21]: > 50 µg/mL | IC50 (µg/ml), pseudovirus neutralization [22]: 0.13 µg/mL | IC50 [23]: 2.59 µg/mL | IC50 (µg/ml), pseudovirus neutralization [24]: > 50 µg/mL | IC50 [25]: > 50 µg/mL | neutralization IC50 [26]: 27.5 µg/mL | neutralization IC90 [26]: > 50 µg/mL | IC50 [27]: > 50 µg/mL | IC50 (µg/ml), pseudovirus neutralization [28]: > 50 µg/mL | IC50 [29]: > 50 µg/mL | IC50 (µg/ml), pseudovirus neutralization [30]: > 50 µg/mL | IC50 (µg/ml), pseudovirus neutralization [31]: > 50 µg/mL | IC50 (µg/ml), pseudovirus neutralization [32]: > 50 µg/mL | neutralization IC50 (HIV-1 APV-6 Env (HIV-1)): > 25 µg/mL | neutralization IC90 (HIV-1 APV-6 Env (HIV-1)): > 50 µg/mL | neutralization IC50 (HIV-1 APV-17 Env (HIV-1)): > 25 µg/mL | neutralization IC90 (HIV-1 APV-17 Env (HIV-1)): > 50 µg/mL | IC50 [33]: 2.11 µg/mL | IC50 [34]: > 50 µg/mL | IC50 [35]: > 50 µg/mL | IC50 (µg/ml), pseudovirus neutralization [36]: > 50 µg/mL | IC50 (µg/ml), pseudovirus neutralization [37]: > 50 µg/mL | IC50 (µg/ml), pseudovirus neutralization [38]: > 50 µg/mL | IC50 (µg/ml), pseudovirus neutralization [39]: 0.07 µg/mL | IC50 [40]: 0.66 µg/mL | IC50 [41]: 1.51 µg/mL | IC50 (µg/ml), pseudovirus neutralization [42]: > 50 µg/mL | IC50 [43]: 0.26 µg/mL | neutralization IC50 [44]: > 50 µg/mL | neutralization IC50 [45]: > 50 µg/mL | neutralization IC50 [46]: 47 µg/mL | neutralization IC50 [47]: > 50 µg/mL | neutralization IC50 [48]: > 50 µg/mL
